{"source": "patent US20140127211A1", "about": "(Pfizer, published 2014)", "key": {"[1]": {"molecular_target": "T1, human Notch3 NRR recombinant protein (Notch3 NRR_Avi_His tag) (human)", "T1 construct": "Purified from CHO-PACE cells; the entry includes the C-terminal Avi and His6 tag", "T1 chain": "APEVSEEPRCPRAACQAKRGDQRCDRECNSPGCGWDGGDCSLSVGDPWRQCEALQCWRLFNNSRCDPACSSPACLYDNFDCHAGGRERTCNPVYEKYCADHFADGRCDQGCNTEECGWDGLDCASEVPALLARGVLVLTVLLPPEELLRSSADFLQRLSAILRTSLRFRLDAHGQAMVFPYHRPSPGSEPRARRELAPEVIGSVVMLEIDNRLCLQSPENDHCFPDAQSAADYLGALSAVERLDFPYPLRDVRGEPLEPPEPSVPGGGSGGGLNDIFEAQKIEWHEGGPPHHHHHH", "assay": "ELISA, recombinant protein, hybridoma supernatant"}, "[2]": {"molecular_target": "T2, full-length mouse Notch3 expressed on the cell surface (mouse, UniProt Q61982 40-2318)", "T2 construct": "whole, on cells; Over-expressed on U-2 OS cells; also called U2OS/mNotch3", "T2 sequence (Q61982 40-2318)": "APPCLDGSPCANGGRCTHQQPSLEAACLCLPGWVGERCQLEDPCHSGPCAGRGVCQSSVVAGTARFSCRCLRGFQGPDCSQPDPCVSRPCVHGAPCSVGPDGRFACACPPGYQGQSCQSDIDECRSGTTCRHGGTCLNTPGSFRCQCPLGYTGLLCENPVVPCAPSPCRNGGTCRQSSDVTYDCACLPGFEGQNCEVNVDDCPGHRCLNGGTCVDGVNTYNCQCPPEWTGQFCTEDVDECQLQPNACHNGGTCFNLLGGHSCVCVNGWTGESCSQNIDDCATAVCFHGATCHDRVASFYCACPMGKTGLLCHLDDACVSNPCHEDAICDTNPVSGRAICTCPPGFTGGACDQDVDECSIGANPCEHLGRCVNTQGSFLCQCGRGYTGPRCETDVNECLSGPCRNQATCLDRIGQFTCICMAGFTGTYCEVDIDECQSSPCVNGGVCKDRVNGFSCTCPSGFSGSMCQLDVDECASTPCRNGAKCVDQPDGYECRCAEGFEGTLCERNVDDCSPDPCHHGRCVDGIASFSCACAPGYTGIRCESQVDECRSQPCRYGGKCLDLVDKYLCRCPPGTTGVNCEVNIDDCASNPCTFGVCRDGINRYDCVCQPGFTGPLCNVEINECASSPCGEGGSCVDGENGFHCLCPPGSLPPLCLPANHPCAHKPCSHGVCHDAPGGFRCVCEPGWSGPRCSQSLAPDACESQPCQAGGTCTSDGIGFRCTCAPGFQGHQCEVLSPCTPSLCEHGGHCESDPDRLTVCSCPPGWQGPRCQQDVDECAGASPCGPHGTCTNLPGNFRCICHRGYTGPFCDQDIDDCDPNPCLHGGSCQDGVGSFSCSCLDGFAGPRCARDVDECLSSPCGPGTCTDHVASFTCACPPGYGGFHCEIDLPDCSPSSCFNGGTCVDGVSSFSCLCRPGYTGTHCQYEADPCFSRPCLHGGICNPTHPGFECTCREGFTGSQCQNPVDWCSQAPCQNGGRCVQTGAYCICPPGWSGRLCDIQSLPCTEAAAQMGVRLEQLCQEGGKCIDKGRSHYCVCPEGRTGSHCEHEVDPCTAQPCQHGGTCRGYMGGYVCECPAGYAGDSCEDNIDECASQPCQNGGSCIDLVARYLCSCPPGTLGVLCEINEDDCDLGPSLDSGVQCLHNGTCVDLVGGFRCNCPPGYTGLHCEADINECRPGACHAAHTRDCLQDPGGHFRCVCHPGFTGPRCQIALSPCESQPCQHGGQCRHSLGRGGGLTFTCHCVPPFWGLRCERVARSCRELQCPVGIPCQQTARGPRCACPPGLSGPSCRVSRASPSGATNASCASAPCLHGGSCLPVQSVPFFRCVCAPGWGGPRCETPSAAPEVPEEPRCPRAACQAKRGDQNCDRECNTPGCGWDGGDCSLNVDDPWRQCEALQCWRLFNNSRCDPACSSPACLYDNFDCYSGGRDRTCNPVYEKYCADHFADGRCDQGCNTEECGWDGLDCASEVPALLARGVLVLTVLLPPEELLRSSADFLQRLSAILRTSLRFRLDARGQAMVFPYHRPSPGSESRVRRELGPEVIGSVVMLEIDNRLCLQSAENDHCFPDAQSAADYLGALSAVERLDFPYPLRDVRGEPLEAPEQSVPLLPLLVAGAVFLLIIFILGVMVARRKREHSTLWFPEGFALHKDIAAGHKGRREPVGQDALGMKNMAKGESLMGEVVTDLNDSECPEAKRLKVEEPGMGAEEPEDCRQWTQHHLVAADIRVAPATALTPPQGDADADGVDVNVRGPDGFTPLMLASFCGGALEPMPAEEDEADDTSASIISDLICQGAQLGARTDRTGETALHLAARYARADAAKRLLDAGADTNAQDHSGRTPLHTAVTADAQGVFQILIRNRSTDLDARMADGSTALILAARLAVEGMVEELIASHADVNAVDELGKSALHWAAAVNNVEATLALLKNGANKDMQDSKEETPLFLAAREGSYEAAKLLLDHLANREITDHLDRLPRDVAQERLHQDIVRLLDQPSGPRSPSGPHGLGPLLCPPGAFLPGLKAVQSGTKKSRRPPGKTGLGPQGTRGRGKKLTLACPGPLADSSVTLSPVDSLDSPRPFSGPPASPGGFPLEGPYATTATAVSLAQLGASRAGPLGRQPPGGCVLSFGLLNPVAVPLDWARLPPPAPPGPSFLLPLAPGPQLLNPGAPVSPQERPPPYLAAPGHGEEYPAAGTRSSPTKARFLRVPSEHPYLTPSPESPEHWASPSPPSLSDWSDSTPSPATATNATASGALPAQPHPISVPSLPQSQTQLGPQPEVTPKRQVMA", "assay": "cell-based ELISA, U-2 OS cells over-expressing mouse Notch3"}}}
{"binder": "parental rat clone 75 (r75) (antibody, V domains shown, Rat monoclonal antibody from hybridoma, tested as hybridoma supernatant) VH: QVKLLQSGAALVKPGASVKMSCKASGYAFTDYWVTWVKQSHGKSLEWIGEISPNSGGTNFNEKFKGKATLTVDKSTSTAYMELSRLTSEDSAIYYCTRGEIRYNWFAYWGQGTLVTVSS VL: NIVMTQSPKSMSISVGDRVTMNCKASQNVGNNIAWYQQKPGQSPKLLIYYASNRYTGVPDRFTGGGYGTDFTLTINSMQAEDAAFYYCQRLYNSPFTFGSGTKLEIK", "values": [{"measurement": "O.D. 450 nM", "setting": "[1]", "result": "≥ 1", "unit": "O.D. 450 nM"}, {"measurement": "binding result", "setting": "[2]", "result": "no binding"}]}
